From patent publication US20160060340A1 (Kyowa Kirin, published 2016)
Values belong to the binder of their own block, whether it stands above or below them.

Experiments:
[1] = molecular target: T1, cynomolgus monkey FOLR1-Fc (cynomolgus monkey; human); assay: ELISA, antigen coated at 2 ug/mL, antibody 1.4-1000 ng/mL, goat anti-human kappa-HRP, ABTS, absorbance at 415 nm [c]
T1 construct: Expressed in CHO/Ms704 cells; also called CyFOLR1-Fc; not shown: Human IgG1 Fc (Hinge region and CH2-CH3 region) from pKANTEX93, added to the C-terminus
T1 sequence (chain, as listed by the source): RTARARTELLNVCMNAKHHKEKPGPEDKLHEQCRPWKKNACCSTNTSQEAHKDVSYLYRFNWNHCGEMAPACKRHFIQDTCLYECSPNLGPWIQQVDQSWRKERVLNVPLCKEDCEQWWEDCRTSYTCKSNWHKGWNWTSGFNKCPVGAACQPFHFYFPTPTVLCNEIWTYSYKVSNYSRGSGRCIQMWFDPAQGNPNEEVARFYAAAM
Procedure: (§1) First, each 50 μL/well of FOLR1-Fc, FOLR2-Fc, FOLR3-Fc, and cynomolgus monkey FOLR1-Fc which were prepared at a concentration of 2 μg/mL using PBS was added in a 96-well plate for ELISA and incubated at 4° C. overnight. It was washed with PBS, and then 200 μL/well of 1% BSA/PBS wad added at room temperature for 1 hour for blocking. It was washed with PBS again, and each 50 μL/well of HuRA15-7CTDF antibody, ChRA15-7DF antibody, MORAb-003DF antibody, and defucosylated anti-DNP human IgG1 (DNPDF) antibody as a negative control which were prepared by seven-step dilution (1.4, 4.1, 12, 37, 111, 333, 1000 ng/mL) in 1% BSA/PBS was added, and allowed to react at room temperature for 1 hour.
(§2) Each well was washed with 0.05% tween20/PBS, and then 50 μL/well of Goat anti-Human kappa-HRP (Southern Biotech) which was diluted 2000-fold using 1% BSA/PBS was added and allowed to react at room temperature for 1 hour. Each well was washed with PBS, and then 50 μL/well of ABTS substrate solution was added, and allowed to react at room temperature. After sufficient color development was confirmed, 5% SDS solution was added to terminate the reaction, and absorbance at 415 nm was measured.

[2] = molecular target: T1, cynomolgus monkey FOLR1-Fc; assay: ELISA, antigen coated at 2 ug/mL, antibody 1.4-1000 ng/mL, goat anti-human kappa-HRP, ABTS, absorbance at 415 nm [d]
Procedure: as §1, §2

[3] = molecular target: T2, cynomolgus monkey FOLR1 (on JTC-12 cells) (cynomolgus monkey, UniProt P15328 25-234 (human entry)); assay: flow cytometry on cynomolgus monkey kidney-derived cell line JTC-12
T2 construct: Endogenous FOLR1 of the cynomolgus monkey kidney-derived cell line JTC-12; also called CyFOLR1
T2 sequence (P15328 other isoform, or with tags, fused parts or gaps limits assumed): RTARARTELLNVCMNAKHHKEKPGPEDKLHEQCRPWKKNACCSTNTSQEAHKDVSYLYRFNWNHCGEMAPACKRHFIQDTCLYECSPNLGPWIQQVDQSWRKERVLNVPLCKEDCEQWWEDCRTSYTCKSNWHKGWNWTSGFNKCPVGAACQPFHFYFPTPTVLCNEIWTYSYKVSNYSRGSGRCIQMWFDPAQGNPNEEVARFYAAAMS
Procedure: Subsequently, the cells were seeded in a 96-well plate at a density of 2×10⁵ cells/well, followed by centrifugation at 1500 rpm for 1 minute. After the supernatant was discarded, 50 μL of RA15-7 culture supernatant was added to each well, and allowed to react at 4° C. for 30 minutes.
Cells were washed, and then Alexa488-labeled anti-rat IgG(H+L) polyclonal antibody (Invitrogen) diluted in 1% BSA/PBS was added thereto, and they were allowed to react at 4° C. for 30 minutes. The cells were washed again, and then suspended in 1% BSA/PBS, and fluorescent intensity was analyzed by flow cytometry.
In the same manner, the reactivity of the RA15-7 culture supernatant to cynomolgus monkey kidney-derived cell line JTC-12 (RCB1485, RIKEN CELL BANK) was also analyzed by flow cytometry.

[4] = molecular target: T1, cynomolgus monkey FOLR1-Fc; assay: ELISA: antibody captured by anti-rat IgG, Fc fusion added, anti-human IgG-POD
Procedure: Each well was washed with PBS, and then 100 μL/well of 1% BSA/PBS was added at room temperature for 1 hour for blocking. Each well was washed with PBS again, and 50 μL/well of the RA15-7 culture supernatant was added, and allowed to react at room temperature for 1 hour. Each well was washed with 0.05% tween20/PBS, and 50 μL/well of FOLR1-Fc, FOLR2-Fc, FOLR3-Fc, and cynomolgus monkey FOLR1-Fc which were diluted in 1% BSA/PBS were added, and allowed to react at room temperature for 1 hour.
as §2, with “anti-human IgG(H+L)-POD (American Qualex)” for “anti-Human kappa-HRP (Southern Biotech)”, “in” for “using”, “confirmed, 50 μL/well of” for “confirmed,”

FOLR1-mycHis [5] = molecular target: T3, FOLR1-mycHis (human, UniProt P15328 25-233); assay: SPR (Biacore T100), antibody of the supernatant captured on CM5 chip, FOLR1-mycHis as analyte, single-cycle kinetics, 1:1 binding model
T3 construct: Secreted from CHO/DG44 cells, purified on Ni-NTA; Residues 1-233 include the native signal peptide; also called non-reducing FOLR1-mycHis; recombinant protein having myc and His tag at the C-terminus of FOLR1 (1-233 amino acids); not shown: myc and His tag at the C-terminus
T3 sequence (P15328 25-233): as the sequence (chain, as listed by the source) above, with T2I, R4W, K37R, P146A, Y171H counted along it
Text: After cloning, the hybridoma culture supernatant was used to measure its affinity for FOLR1 by a surface plasmon resonance method. As instruments for measurement, Biacore T100 (GE Healthcare), and CM5 chip (GE Healthcare) were used. First, Mouse Antibody Capture Kit (GE Healthcare) was immobilized onto the CM5 chip by amine coupling.
Subsequently, the hybridoma culture supernatant was applied using HBS-EP+buffer (GE Healthcare), and the antibodies contained in the supernatant were captured on the CM5 chip. Subsequently, FOLR1-mycHis prepared by five-step dilution (188, 375, 750, 1500, 3000 ng/mL) was applied as an analyte.
(§3) The affinity was analyzed from association constant (Ka) and dissociation constant (Kd) by Single-cycle kinetics. Kinetic constants (ka, kd, KD) were calculated by 1:1 binding model using a Biacore T-100 Evaluation software (GE Healthcare).

FOLR1-mycHis [6] = molecular target: T3, FOLR1-mycHis; assay: SPR (Biacore T100), antibody captured with Human Antibody Capture Kit, FOLR1-mycHis as analyte, 1:1 binding model
Procedure: as §3
(§4) The affinities of ChRA15-7Acc antibody and MORAb-003 antibody for FOLR1 were measured by a surface plasmon resonance method. The measurement was carried out in the same manner as in Example 16, except that a Human Antibody Capture Kit (GE Healthcare) was immobilized onto the CM5 chip by amine coupling and FOLR1-mycHis prepared by five-step dilution (12.3, 37, 111, 333, 1000 ng/mL) was applied as an analyte.

Rat2-FOLR1-mycHis [7] = molecular target: T4, Rat2-FOLR1-mycHis (human with a rat segment); assay: ELISA, antigen coated at 10 µg/mL; x indicates that no reaction occurred
T4 construct: also called rat/human chimeric FOLR1-mycHis (human 55-62 replaced by rat 53-60)
T4 sequence (chain, as listed by the source limits assumed): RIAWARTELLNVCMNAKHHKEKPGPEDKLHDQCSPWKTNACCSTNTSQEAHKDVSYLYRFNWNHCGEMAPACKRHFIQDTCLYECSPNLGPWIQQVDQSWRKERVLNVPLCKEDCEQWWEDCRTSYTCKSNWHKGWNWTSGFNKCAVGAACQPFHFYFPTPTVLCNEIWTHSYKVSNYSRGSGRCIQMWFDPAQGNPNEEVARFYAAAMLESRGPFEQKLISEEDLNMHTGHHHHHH

Rat4-FOLR1-mycHis [8] = molecular target: T5, Rat4-FOLR1-mycHis (human with a rat segment); assay: ELISA, antigen coated at 10 µg/mL, antibody 14-10000 ng/mL; white circle indicates that reaction occurred
T5 construct: also called rat/human chimeric FOLR1-mycHis (human 91-95 replaced by rat 89-93)
T5 sequence (chain, as listed by the source limits assumed): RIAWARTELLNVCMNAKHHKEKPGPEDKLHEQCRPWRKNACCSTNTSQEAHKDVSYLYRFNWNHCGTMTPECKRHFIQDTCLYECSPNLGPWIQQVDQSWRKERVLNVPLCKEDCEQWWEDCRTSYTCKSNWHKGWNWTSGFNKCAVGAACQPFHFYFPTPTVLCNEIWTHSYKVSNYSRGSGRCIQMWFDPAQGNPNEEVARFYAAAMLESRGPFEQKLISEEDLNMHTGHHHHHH
Procedure: (§5) First, each 50 μL/well of FOLR1-mycHis, Rat1-FOLR1-mycHis, Rat2-FOLR1-mycHis, and Rat4-FOLR1-mycHis which were prepared at a concentration of 10 μg/mL using PBS was […] in a 96-well plate for ELISA, and then incubated at 4° C. overnight. Each well was washed with PBS, and then 200 μL/well of 1% BSA/PBS was added at room temperature for 1 hour for blocking.

FOLR1-mycHis [9] = molecular target: T3, FOLR1-mycHis; assay: SPR as in Example 29, antibody captured, FOLR1-mycHis as analyte, 1:1 binding model
Procedure: as §4
In the same manner as in Example 29, affinity of HuRA15-7CTAcc antibody for FOLR1 was measured by the surface plasmon resonance method.

Rat2-FOLR1-mycHis [10] = molecular target: T4, Rat2-FOLR1-mycHis; assay: ELISA as in Example 35, antigen coated; x indicates that no reaction occurred
Procedure: as §5
(§6) In the same manner as in Example 35, reactivities of ChRA15-7Acc antibody, MORAb-003 antibody, MOv18 antibody, and HuRA15-7CTAcc antibody were evaluated using FOLR1-mycHis prepared in Example 11 and Rat1-FOLR1-mycHis, Rat2-FOLR1-mycHis, Rat4-FOLR1-mycHis prepared in Example 34.

Rat4-FOLR1-mycHis [11] = molecular target: T5, Rat4-FOLR1-mycHis; assay: ELISA as in Example 35, antigen coated; white circle indicates that reaction occurred
Procedure: as §5, §6

B2: HuRA15-7CTDF antibody (antibody, human IgG1, V domains shown)
VH: EVQLVESGGGLVQPGGSLRLSCAASGFTFTDFYMNWVRQPPGKAPEWLGFIRNKANGYTTEFNPSVKGRFTISRDNSKNSLYLQMNSLKTEDTATYYCARTLYGYAYYYVMDAWGQGTLVTVSS
VL: DIQMTQSPSSLSASLGDRVTITCRTSEDIFRNLAWYQQKPGKAPKLLIYDTNRLADGVPSRFSGSGSGTDYTLTISSLQPEDFATYFCQQYDNYPLTFGQGTKLEIK
notes: defucosylated, made in CHO/Ms704 cells; also called defucosylated HuRA15-7CT
binding result [2]: binds

B4: ChRA15-7Acc antibody (antibody, human IgG1, V domains shown)
VH: EVKLLESGGGLVQPGGSMRLSCAASGFTFTDFYMNWIRQPAGKAPEWLGFIRNKANGYTTEFNPSVKGRFAISRDNTQNMLYLQMNTLRAEDTATYYCARCLYGYAYYYVMDAWGQGTSVTVSS
VL: DIQMTQSPASLSASLGETVTIECRTSEDIFRNLAWYQQRPGNSPQLLIYDTNRLADGVPSRFSGSGSGTQYSLKINSLQSEDVAGYFCQQYDNYPLTFGSGTKLEIK
notes: Defucosylated, made in CHO/Ms704 cells; also called CDC enhancement technology-applied defucosylated ChRA15-7; rat/human chimeric RA15-7
Kd (FOLR1-mycHis [6]): 0.57 nM | koff (FOLR1-mycHis [6]): 0.001 s⁻¹ | binding result (Rat2-FOLR1-mycHis [7]): no binding (tested: up to 10000 ng/mL) | binding result (Rat4-FOLR1-mycHis [8]): binds

B5: HuRA15-7CTAcc antibody (antibody, human IgG1, V domains shown)
VH: EVQLVESGGGLVQPGGSLRLSCAASGFTFTDFYMNWVRQPPGKAPEWLGFIRNKANGYTTEFNPSVKGRFTISRDNSKNSLYLQMNSLKTEDTATYYCARTLYGYAYYYVMDAWGQGTLVTVSS
VL: DIQMTQSPSSLSASLGDRVTITCRTSEDIFRNLAWYQQKPGKAPKLLIYDTNRLADGVPSRFSGSGSGTDYTLTISSLQPEDFATYFCQQYDNYPLTFGQGTKLEIK
notes: Defucosylated, made in CHO/Ms704 cells; also called CDC enhancement technology-applied defucosylated HuRA15-7CT
Kd (FOLR1-mycHis [9]): 0.65 nM | koff (FOLR1-mycHis [9]): 0.00108 s⁻¹ | binding result (Rat2-FOLR1-mycHis [10]): no binding (tested: up to 10000 ng/mL) | binding result (Rat4-FOLR1-mycHis [11]): binds

Next, values leading:

binding result [1]: binds
B1: ChRA15-7DF antibody (antibody, human IgG1, V domains shown)
VH: EVKLLESGGGLVQPGGSMRLSCAASGFTFTDFYMNWIRQPAGKAPEWLGFIRNKANGYTTEFNPSVKGRFAISRDNTQNMLYLQMNTLRAEDTATYYCARCLYGYAYYYVMDAWGQGTSVTVSS
VL: DIQMTQSPASLSASLGETVTIECRTSEDIFRNLAWYQQRPGNSPQLLIYDTNRLADGVPSRFSGSGSGTQYSLKINSLQSEDVAGYFCQQYDNYPLTFGSGTKLEIK
notes: sugar chain without fucose, made in CHO/Ms704 cells; also called defucosylated rat/human chimeric RA15-7

binding result [3]: binds | binding result [4]: binds | Kd (FOLR1-mycHis [5]): 1.9 nM
B3: RA15-7 antibody (antibody, V domains shown)
VH: EVKLLESGGGLVQPGGSMRLSCAASGFTFTDFYMNWIRQPAGKAPEWLGFIRNKANGYTTEFNPSVKGRFAISRDNTQNMLYLQMNTLRAEDTATYYCARCLYGYAYYYVMDAWGQGTSVTVSS
VL: DIQMTQSPASLSASLGETVTIECRTSEDIFRNLAWYQQRPGNSPQLLIYDTNRLADGVPSRFSGSGSGTQYSLKINSLQSEDVAGYFCQQYDNYPLTFGSGTKLEIK
notes: also called antibody contained in the RA15-7 culture supernatant; culture supernatant of hybridoma RA15-7 clone
